Test: soluble on expression in E. coli; label from the status in PepcDB or PDB records

Sequence	soluble on expression in E. coli
GAAAAMSICPHIQQVFQNEKSKDGVLKTCNAARYILNHSVPKEKFLNTMKCGTCHEINSGATFMCLQCGFCGCWNHSHFLSHSKQIGHIFGINSNNGLLFCFKCEDYIGNIDLINDAILAKYWDDVCTKTMVPSMERRDGLSGLINMGSTCFMSSILQCLIHNPYFIRHSMSQIHSNNCKVRSPDKCFSCALDKIVHELYGALNTKQASSSSTSTNRQTGFIYLLTCAWKINQNLAGYSQQDAHEFWQFIINQIHQSYVLDLPNAKEVSRANNKQCECIVHTVFEGSLESSIVCPGCQNNSKTTIDPFLDLSLDIKDKKKLYECLDSFHKKEQLKDFNYHCGECNSTQDAIKQLGIHKLPSVLVLQLKRFEHLLNGSNRKLDDFIEFPTYLNMKNYCSTKEKDKHSENGKVPDIIYELIGIVSHKGTVNEGHYIAFCKISGGQWFKFNDSMVSSISQEEVLKEQAYLLFYTIRQVN	soluble
YALTEGEDYLVLDKPIPQEQPGKIEVLEFFGYFCVHCHHFDPLLLKLGKALPSDTYLRTEHVVWRPEMLGLARMAAAVKLSGLKYQANSAVFKAVYEQKIRLENRAVAGKWALSQKGFDGKKLMRAYDSPEAAAVALKMQKLTEQYGIDSTPTVIVGGKYRVIFNNGFDGGVHTIKELVAK	not soluble
MSEKETPSPVLDVKKEKNEETGIDEEKSSEDDCSKRSKVKSNPSKFSVNSILSPLESLVRVQQQLLKMAASKSGTPGTNAGVPGAFPYGPGRLPGNYFAGPFPGYSGAQPNWYNGNDPRFAAAAALLPCSIDPVRSAINHQFSMSSMSQRRKRRVLFSQAQVYELERRFKQAKYLTAPEREQLANSIRLTPTQVKIWFQNHRYKCKRQEKEKAMSGLGHSEDGSSPPPDNDDDDDKYSIEMDDKDDEEEEESEKPVLKPSGVFGLPYPPNAAAAAAAAAAAFNFPFAAQGPNPAYYMRW	not soluble
TTSRQIGSDDNTSLGTNISIDGMPLSNDAMRTQLYGITGVDRSDLYVADRTVTRRTGMNAGIDLRTISTDHIETIEIERGISSVGEGNLSSGAIRIRTKQGSAPLQMRVKADPLSKLAYVGKGFKVSKRGASIHTGIDFLHNKPDVREVLDSYKRSTLHARYSDQLNYGDMIVDLGIGLMQTFSIQDSKSDQLVNEYEETYNSKYLRSSLSFDAKVRFSGSWLNSIDWLLSADYTSDLLKRKKYYISTSGPKSMPVATESGEHEGVFLPSAYYAYYEIDNQPLYFFSRFKANTDINFTERHHHHLLYGLEARSSKNIGRGVVADPTRPPYPGNNSYIRPRPNYNIPASVYAAFFVEDRASVEWGANRLGIQAGLRATHLFNLPSSYALSRKMLIEPRIKANWQYRAEHLSINLRAGYGMENKLPTLDHLYPDKIYRDFMVLNAYMQNPELDHLITYTYIHNPENPAIRENRNVKKEIGIDMTYKRFDFSLTLFHEESRRGFEYFDSYLPIAFDRYTKLIAPLPPGHKPQKEDYIQEHHKDFFVIPTVQNSAKVVKRGIEFRLRTPYLKAINTQVEVNGAYYHTLYASGIPIMFRPIVSEYEQALYPYVGYYEGSLHKHYQRFNTNVWVNTHFPRYKLIFTSFFQIIWHDASYRGHEESEFPYAYMDLDGVVHPTSKAAILEAAATNDILKYLSRERTELYYRATYKPISLRINFKATKEFSDRMRLAFFVDNIIDINPKYKQANNTTERDWSIPYFGIETTFTL	not soluble
MSLEHILLPLDLSEVSKPLAISVAELASRHKSRVTLLHVIEEAMVIHVAAGYDVSSLIRSIEKNAREKLDKIKKLMMEKGANVVVYEDIPVGNPGTVISEVAEEVGATEIVMGSKGLGIFRILPLGSTVRETVKISRKPVIRLKTYKENGHVKVAYSPMLFRKILVGADRNTSKSMIDYAVNAASTDDGKVILAHIIEPPLEEPSYEVKNVFKYGEKAGEERGVEVEIVVARGRPDKMLTAIASQMDASSVLVGRTVERRLSELILGSTLDRLMTLCELPLIVYPLEGHHHHHH	soluble
MGSDKIHHHHHHMNFFEIVNAHLSELSPNEQKLFDYVVTNMGQIKNQSIREVASATFVSTATFLRFVKKIGFSGFSEFTTVIKFTLINRQEAERTTPFVVQQKDYREEYLKNIGESIRVIQPDHLRQVVDRLAQHPDVFFFAKGVSKHAVAYIDYLYTMAGFKTHFPRDHDYRKQALTQVDNDALVFILTYKGSDGEMLDMMSQLVGRPVRPLLVSITEPDNNTIQNLSDINFYIFTDGVTVNGTDISSRISTISVMELILYQYVEDYGGRDFHFQRQLES	not soluble
MGSDKIHHHHHHMKQFQIVGIGNALVDVLSHCDDAFLAENGIAKGIMQLIDMGRAVDLYGRIGPAQEISGGSAANTIAGIAQLGGRTAYVGKVCDDQLGAIFAHDLRAQGAVYETPMAPKGGAQETGRCIILVSPDGERSMNTCLGWSEFLTPDDIDEAQMASTEWIYLEGYRFDGPESHAAFAKAIAACRGAGGRVSLTLSDPFCVERHRDAFRRMIREDVDLLFANRAEILSMYRTEDFGAALKAAAAEVAIVACTESEKGAHILADGQHWHVPALPTQIVDATGAGDLFAGAFLWGLTHGHGYETAGRMGCIAASEVISHLGARPEADLRALFRAQGVL	not soluble
NTRGMALFADGGLIATKPYSASGSYINKMSDYCASCAYQVKLKSGEKACPLNSLYWRFMLKHRDRLANNPRIGMLYKTWDKMTSDSQQAILSTADAYLSQIESL	not soluble
MVGVLFTFFAWCQRDRDVVGTPFVSIRGIFQADHRAWCENRRRELTKPDGWMSLIGLHWLGPKAHYIGSSPDNGIRLAMGPPDMGMIERDGDVVWFTPHAGVPLTVDGQPLRGRVRVFSDADLTPTTIGFDDGKGWLTLLRRGDRFALRVKHVNAPSRLHFTGLEYWPSDPEWRISARYLPNKAGATLSIFNIVGMTANVPNAGVIAFERLGHTYRLQAIRAAGQALFVMFADRTSGHGSYPAGRFLEVDAPDKQGSVVLDFNRAYNPPCAFTLFTTCLLPPSENRLNLAVTAGEKAYHVSTVLPLEHHHHHH	not soluble
MTCDDWNSYIQVNIYGKTIEGLQQQGVVLESLLNNVGCSKVWIMEGSVCTNPRPESSTHSEESTIEPVVPLSTTLATNKLPRFSTPAIGHSNNNSSKNFTLNLAEKLSEILSDDDKTDEFLENSHQSETSKDDVIKDLLEEMVQTVANSNKPPILLSTTLANVGVPRFSTPIKPQHALNRDFTMNMTEMISEIDSNYEGYELFDDSSNDCTTLTPNCQEVESSFYRALSEAASSIVPYQEGKRRSSRRLSTLSSLKETVKVEPAVSKLTKRRRLTPVECSSETMIPHSQPIPLDTCSDQPIFPNSTHNAIQSDGFSYEQPICEFGDSQLFLSAKSLCTEPNSSIAEDVKPVLTVSDSDITASNRNNIDDHNRVIELSTEV	not soluble
LIPILGLGNYTAQVDIELDFSAVEQTRKVFDPNTPATRSEYTLEDYNNGNVVAGVPGALSNQPPADASIPQDVAQMKDGSVMGQGSVHKEATRNYELDTTISHERKQSGVINRQTVAVAVKSRSSVNPDTGEVTYTPLSEADLNSIRQVLIGTVGYSENRGDLLNVLSMPF	not soluble
MAAPSAGSWSTFQHKELMAADRGRRILGVCGMHPHHQETLKKNRVVLAKQLLLSELLEHLLEKDIITLEMRELIQAKVGSFSQNVELLNLLPKRGPQAFDAFCEALRETKQGHLEDMLLTTLSGLQHVLPPLSCDYDLSLPFPVCESCPLYKKLRLSTDTVEHSLDNKDGPVCLQVKPCTPEFYQTHFQLAYRLQSRPRGLALVLSNVHFTGEKELEFRSGGDVDHSTLVTLFKLLGYDVHVLCDQTAQEMQEKLQNFAQLPAHRVTDSCIVALLSHGVEGAIYGVDGKLLQLQEVFQLFDNANCPSLQNKPKMFFIQACRGDETDRGVDQQDGKNHAGSPGCEESDAGKEKLPKMRLPTRSDMICGYACLKGTAAMRNTKRGSWYIEALAQVFSERACDMHVADMLVKVNALIKDREGYAPGTEFHRCKEMSEYCSTLCRHLYLFPGHPPT	not soluble
FLILLRKTLEQLQEKDTGNIFSEPVPLSEVPDYLDHIKKPMDFFTMKQNLEAYRYLNFDDFEEDFNLIVSNCLKYNAKDTIFYRAAVRLREQGGAVLRQARRQAEKMG	soluble
MYLPDDSPAKRLLFQMVGNAINRNTQQLTQDLRAMPNWSLRFVYIVDRNNQDLLKRPLPPGIMVLAPRLTAKHPYDKVQDRNRKLYGRHITLNDGNSVKVVTISAGRDEGPDRDIIWEMFLENLEHHHHHH	soluble

Source: the DeepSol protein solubility set
